Reference: patent publication US20250236657A1 (TOSOH, published 2025)
Substitutions are numbered along the chain they refer to.

Assays:
[1] = target: T1, AAV2 S267A (adeno-associated virus serotype 2 (AAV2), UniProt P03135 1-735); test: affinity HPLC, AVR11a immobilization gel, linear pH gradient 6.0 to 2.0, AAV2 peak top
T1 construct: Recombinant AAV2 vector particles in filtered cell lysate

[2] = target: T2, AAV2 T503S (adeno-associated virus serotype 2 (AAV2), UniProt P03135 1-735); test: as above
T2 construct: Recombinant AAV2 vector particles in filtered cell lysate

[3] = target: T3, AAV2 (wild type), serotype 2 AAV with capsid region VP1 of SEQ ID NO: 99 (adeno-associated virus serotype 2 (AAV2), UniProt P03135 1-735); test: as above
T3 construct: Recombinant AAV2 vector particles (EGFP genome) in filtered cell lysate; the capsid is assembled from VP1, VP2 and VP3

[4] = target: T4, AAV2 Q263A (adeno-associated virus serotype 2 (AAV2), UniProt P03135 1-735); test: as above
T4 construct: Recombinant AAV2 vector particles in filtered cell lysate

[5] = target: T5, AAV2 R471A (adeno-associated virus serotype 2 (AAV2), UniProt P03135 1-735); test: as above
T5 construct: Recombinant AAV2 vector particles in filtered cell lysate

[6] = target: T6, AAV2 D529E (adeno-associated virus serotype 2 (AAV2), UniProt P03135 1-735); test: as above
T6 construct: Recombinant AAV2 vector particles in filtered cell lysate

[7] = target: T7, AAV2 S384A (adeno-associated virus serotype 2 (AAV2), UniProt P03135 1-735); test: as above
T7 construct: Recombinant AAV2 vector particles in filtered cell lysate

[8] = target: T8, AAV2 Q385A (adeno-associated virus serotype 2 (AAV2), UniProt P03135 1-735); test: as above
T8 construct: Recombinant AAV2 vector particles in filtered cell lysate

[9] = target: T9, AAV2 D528A (adeno-associated virus serotype 2 (AAV2), UniProt P03135 1-735); test: as above
T9 construct: Recombinant AAV2 vector particles in filtered cell lysate

[10] = target: T10, AAV2 E499A (adeno-associated virus serotype 2 (AAV2), UniProt P03135 1-735); test: as above
T10 construct: Recombinant AAV2 vector particles in filtered cell lysate

[11] = target: T11, AAV2 N382A (adeno-associated virus serotype 2 (AAV2), UniProt P03135 1-735); test: as above
T11 construct: Recombinant AAV2 vector particles in filtered cell lysate

[12] = target: T12, AAV2 S267T (adeno-associated virus serotype 2 (AAV2), UniProt P03135 1-735); test: as above
T12 construct: Recombinant AAV2 vector particles in filtered cell lysate

[13] = target: T13, AAV2 S264A (adeno-associated virus serotype 2 (AAV2), UniProt P03135 1-735); test: as above
T13 construct: Recombinant AAV2 vector particles in filtered cell lysate

[14] = target: T14, AAV2 H271F (adeno-associated virus serotype 2 (AAV2), UniProt P03135 1-735); test: affinity HPLC on AVR11a column, pH gradient 6.0 to 2.0; no elution peak, not adsorbed and passed through
T14 construct: Recombinant AAV2 vector particles in filtered cell lysate

[15] = target: T15, AAV2 D529A (adeno-associated virus serotype 2 (AAV2), UniProt P03135 1-735); test: as above
T15 construct: Recombinant AAV2 vector particles in filtered cell lysate

[16] = target: T16, AAV2 G383A (adeno-associated virus serotype 2 (AAV2), UniProt P03135 1-735); test: as above
T16 construct: Recombinant AAV2 vector particles in filtered cell lysate

[17] = target: T17, AAV2 H271Q (adeno-associated virus serotype 2 (AAV2), UniProt P03135 1-735); test: as above
T17 construct: Recombinant AAV2 vector particles in filtered cell lysate

[18] = target: T18, AAV2 H271A (adeno-associated virus serotype 2 (AAV2), UniProt P03135 1-735); test: as above
T18 construct: Recombinant AAV2 vector particles in filtered cell lysate

[19] = target: T19, AAV2 H271T (adeno-associated virus serotype 2 (AAV2), UniProt P03135 1-735); test: as above
T19 construct: Recombinant AAV2 vector particles in filtered cell lysate

[20] = target: T1, AAV2 S267A; test: affinity HPLC, AVR10s immobilization gel, linear pH gradient 4.5 to 2.2, AAV2 peak top
[21] = target: T2, AAV2 T503S; test: as above
[22] = target: T3, AAV2 (wild type), serotype 2 AAV with …; test: as above
[23] = target: T4, AAV2 Q263A; test: as above
[24] = target: T5, AAV2 R471A; test: as above
[25] = target: T6, AAV2 D529E; test: as above
[26] = target: T7, AAV2 S384A; test: as above
[27] = target: T8, AAV2 Q385A; test: as above
[28] = target: T9, AAV2 D528A; test: as above
[29] = target: T10, AAV2 E499A; test: as above
[30] = target: T11, AAV2 N382A; test: as above
[31] = target: T17, AAV2 H271Q; test: as above
[32] = target: T18, AAV2 H271A; test: as above
[33] = target: T19, AAV2 H271T; test: as above
[34] = target: T12, AAV2 S267T; test: as above
[35] = target: T13, AAV2 S264A; test: as above
[36] = target: T14, AAV2 H271F; test: affinity HPLC on AVR10s column, pH gradient 4.5 to 2.2; no elution peak, not adsorbed and passed through
[37] = target: T15, AAV2 D529A; test: as above
[38] = target: T16, AAV2 G383A; test: as above
[39] = target: T14, AAV2 H271F; test: affinity HPLC on AVR21 column, pH gradient 6.0 to 2.0; no elution peak, not adsorbed and passed through
[40] = target: T15, AAV2 D529A; test: as above
[41] = target: T16, AAV2 G383A; test: as above

B1: AAV-binding protein AVR11a with cysteine tag (SEQ ID NO: 100), immobilised as AVR11a immobilization gel (receptor)
chain: MGSAGESDQITLPKNEVQLNVYVLQEPPKGETSTYDWQLITHPRDYSGEMEGEHSQILKLSNLTPGLYEFKAVVEGQNAHSEGYVNVTVEPEPRKNRPPIAIVSPQFQEISLPTTSTVIDGSQSTDDDKIVQYHWEELKGPLREEKISEDTAILKLSKLVPGNYTFRLTVVDSDGATDSTTANLTVNKAVDHHHHHHCRNDTCG
modifications: immobilised on a TOYOPEARL carrier with iodoacetamide groups; cysteine tag sequence serving as immobilization tag at positions 220-226
notes: KIAA0319L PKD1 and PKD2 with 11 substitutions (AVR10s plus Ala330Val); also called AVR11a column
B1 was tested, and the “AVR11a column elution time” value [1] was 59.4 min, the “AVR11a column elution time” value [2] was 55.2 min and the “AVR11a column elution time” value [3] was 59.8 min. For the same binder, the “AVR11a column elution time” value [4] was 60.2 min, the “AVR11a column elution time” value [5] was 60.3 min and the “AVR11a column elution time” value [6] was 54.5 min. For the same binder, the “AVR11a column elution time” value [7] was 58.6 min, the “AVR11a column elution time” value [8] was 57.7 min and the “AVR11a column elution time” value [9] was 55.5 min. The “AVR11a column elution time” value [10] was 59.3 min, the “AVR11a column elution time” value [11] was 53.5 min and the “AVR11a column elution time” value [12] was 59.2 min. For the same binder, the “AVR11a column elution time” value [13] was 59.6 min, the binding result [14] was “no binding” and the binding result [15] was “no binding”. B1: no binding [16]; no binding [17]; no binding [18]. B1: no binding [19].

B2: AAV-binding protein AVR10s with cysteine tag (SEQ ID NO: 97), immobilised as AVR10s immobilization gel (receptor)
chain: B1 chain with V21A
modifications: immobilised on a TOYOPEARL carrier with iodoacetamide groups; cysteine tag sequence serving as immobilization tag at positions 220-226
notes: purified on Ni Sepharose and coupled to the carrier; also called AVR10s column
In the case of B2, the “AVR10s column elution time” value [20] is reported as 52.9 min, the “AVR10s column elution time” value [21] is reported as 48 min and the “AVR10s column elution time” value [22] is reported as 54.4 min. For the same binder, the “AVR10s column elution time” value [23] was 54.4 min, the “AVR10s column elution time” value [24] was 53.4 min and the “AVR10s column elution time” value [25] was 47 min. For the same binder, the “AVR10s column elution time” value [26] was 52.1 min, the “AVR10s column elution time” value [27] was 50.9 min and the “AVR10s column elution time” value [28] was 47.5 min. The “AVR10s column elution time” value [29] was 53.1 min, the “AVR10s column elution time” value [30] was 46.4 min and the “AVR10s column elution time” value [31] was 46.4 min. The “AVR10s column elution time” value [32] was 46.7 min, the “AVR10s column elution time” value [33] was 42.6 min and the “AVR10s column elution time” value [34] was 54.2 min. For the same binder, the “AVR10s column elution time” value [35] was 53.7 min, the binding result [36] was “no binding” and the binding result [37] was “no binding”. B2: no binding [38].

B3: AAV-binding protein AVR21 with cysteine tag (SEQ ID NO: 102), immobilised as AVR21 immobilization gel (receptor)
chain: B1 chain with N15H, V17A, Q25L, E26V, T32A, F70Y, K71R, K158Q, S173T, N183D
modifications: immobilised on a TOYOPEARL carrier with iodoacetamide groups; cysteine tag sequence serving as immobilization tag at positions 220-226
notes: KIAA0319L PKD1 and PKD2 with 21 substitutions; also called AVR21 column
B3: no binding [39]; no binding [40]; no binding [41].
